Molecular target: T1, Aβ(1–42) (UniProt P05067 672-713)
T1 construct: also called Aβ42; β-amyloid (Aβ) peptide; source: bought: rPeptide (recombinant Aβ42, Ultrapure)
Test: SPR; Aβ42 fibrils immobilised by amine coupling on a COOH5 chip (~5,000 RU), Sensi Q; RI-OR2-TAT injected at 1, 3 and 6 µM in PBS with 0.005% Tween 20 for 5 min at 30 µl/min; empty reference surface subtracted; each concentration fitted separately, 1:1 Langmuir model; apparent
Conditions: both partners purified

B1: RI-OR2-TAT (Ac-rGffvlkGrrrrqrrkkrGy-NH2) (peptide)
peptide: RGFFVLKGRRRRQRRKKRGY
HELM: PEPTIDE1{[ac].[dR].G.[dF].[dF].[dV].[dL].[dK].G.[dR].[dR].[dR].[dR].[dQ].[dR].[dR].[dK].[dK].[dR].G.[dY].[am]}$$$$V2.0
SMILES: CC(=O)N[C@H](CCCNC(=N)N)C(=O)NCC(=O)N[C@H](Cc1ccccc1)C(=O)N[C@H](Cc1ccccc1)C(=O)N[C@@H](C(=O)N[C@H](CC(C)C)C(=O)N[C@H](CCCCN)C(=O)NCC(=O)N[C@H](CCCNC(=N)N)C(=O)N[C@H](CCCNC(=N)N)C(=O)N[C@H](CCCNC(=N)N)C(=O)N[C@H](CCCNC(=N)N)C(=O)N[C@H](CCC(N)=O)C(=O)N[C@H](CCCNC(=N)N)C(=O)N[C@H](CCCNC(=N)N)C(=O)N[C@H](CCCCN)C(=O)N[C@H](CCCCN)C(=O)N[C@H](CCCNC(=N)N)C(=O)NCC(=O)N[C@H](Cc1ccc(O)cc1)C(N)=O)C(C)C
notes: source: synthetic peptide, custom made by Cambridge Peptides (>95% purity)
  Kd: 58 to 125 nM
  koff: 0.00037 s⁻¹
  kon: 3680 M⁻¹ s⁻¹

Reference: article PMC3561363, “A Novel Retro-Inverso Peptide Inhibitor Reduces Amyloid Deposition, Oxidation and Inflammation and Stimulates Neurogenesis in the APPswe/PS1ΔE9 Mouse Model of Alzheimer’s Disease” (PLoS ONE, 2013)
